Test results as given in paper PMC6949598, “Structure-based mechanism of cysteine-switch latency and of catalysis by pappalysin-family metallopeptidases” (IUCrJ, 2020).

Molecular target: T1, mature wild-type mirolysin (Tannerella forsythia, UniProt A0A0F7IPS1 55-331)
T1 construct: the model holds Pro58-Pro327; Holds one catalytic zinc and two calcium ions; disulfides Cys243-Cys271 and Cys262-Cys291; The promirolysin constructs were made in E. coli BL21 (DE3) as fusions with N-terminal GST and a PreScission site; also called mature mirolysin; CD; source: recombinant, prepared as previously described (Koneru et al., 2017)
Assay: crystal structure; mature mirolysin incubated at 1:2 molar ratio with BFO_2662, which was cleaved; sitting drop, 4 °C, protein ~12 mg/ml in 5 mM Tris HCl, 50 mM NaCl, 5 mM CaCl2, pH 8.0; reservoir 40% ethanol, 5% PEG 1000, 0.1 M phosphate-citrate pH 4.2; 1.5 Å; one complex per asymmetric unit
Settings: both partners purified

B1: tetradecapeptide K110-K123 of small lipoprotein BFO_2662 (peptide)
peptide: KRDPVYFIKLSTIK
notes: segment K110-K123 of small lipoprotein BFO_2662, Tannerella forsythia; numbered Lys1-Lys14 in the structure; only the first seven residues were assigned unambiguously from the map; A citrate (CIT-1) in sub-site S1 belongs to molecule B of the model but is no part of the peptide; also called Lys1-Lys14; product; source: cleavage product of BFO_2662, cut by mirolysin during crystallization …
**Q.** Does B1 bind?
**A.** binds
